Source: patent US20240016892A1
Each block holds one substance with its values, some of them ahead of it.

Legend:
[1] = target: recombinant human LTβR (human) (UniProt P36941); assay: BLI (Octet-Red96), tagged rhLTβR immobilised on biosensor
[2] = target: recombinant human HVEM (human) (UniProt Q92956); assay: BLI (Octet-Red96), tagged rhHVEM immobilised on biosensor
human 4-1BB-His (human) [3] = target: human 4-1BB-His (human) (UniProt Q07011); assay: MSD 'Human 41BB-Binding Assay': coat h41BB-His (R&D), detect anti-41BBL (R&D), anti-Goat Sulfo; positive control
Chain of human 4-1BB-His (human) (Q07011 24-186 limits assumed): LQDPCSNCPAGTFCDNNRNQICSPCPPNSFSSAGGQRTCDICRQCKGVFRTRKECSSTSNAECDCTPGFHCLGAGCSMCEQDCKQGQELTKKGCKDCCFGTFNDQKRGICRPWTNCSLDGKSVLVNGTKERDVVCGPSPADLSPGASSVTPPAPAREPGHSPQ

mouse CD47-Fc (mouse) = mouse CD47-Fc (mouse) (UniProt Q61735); assay: MSD dual-binding sandwich: coat mCD47-Fc (Acro); detect m41BB-His (Acro); anti-His Biotin + Streptavidin Sulfo; labelled Negative Control
Chain of mouse CD47-Fc (mouse) (Q61735 19-140 limits assumed): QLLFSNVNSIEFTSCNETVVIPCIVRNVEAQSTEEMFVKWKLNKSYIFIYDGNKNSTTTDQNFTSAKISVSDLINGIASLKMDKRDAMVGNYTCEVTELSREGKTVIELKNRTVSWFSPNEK

[4] = target: recombinant human PVR (human) (UniProt P15151); assay: BLI (Octet-Red96), tagged rhPVR immobilised on biosensor
[5] = target: recombinant human HVEM-Fc (human) (UniProt Q92956); assay: MSD sandwich: capture HVEM-Fc; detection PVR-Biotin
Chain of recombinant human HVEM-Fc (human) (Q92956 39-202 limits assumed): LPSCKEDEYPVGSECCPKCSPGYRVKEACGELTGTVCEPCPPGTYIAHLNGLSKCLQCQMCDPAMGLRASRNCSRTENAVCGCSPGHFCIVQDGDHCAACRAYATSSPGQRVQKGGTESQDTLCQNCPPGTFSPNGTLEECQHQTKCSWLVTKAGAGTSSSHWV

[6] = target: recombinant human LTβR-Fc (human) (UniProt P36941); assay: MSD sandwich: capture LTβR-Fc; detection PVR-Biotin
Chain of recombinant human LTβR-Fc (human) (P36941 31-227 limits assumed): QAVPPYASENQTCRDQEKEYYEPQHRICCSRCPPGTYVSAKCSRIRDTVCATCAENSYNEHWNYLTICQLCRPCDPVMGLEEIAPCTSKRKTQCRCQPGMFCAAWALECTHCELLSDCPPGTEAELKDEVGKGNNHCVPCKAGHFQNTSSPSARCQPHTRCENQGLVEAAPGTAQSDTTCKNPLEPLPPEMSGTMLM

human 4-1BB-His (human) [7] = target: human 4-1BB-His (human) (UniProt Q07011); assay: MSD 'Human 41BB-Binding Assay': coat h41BB-His (R&D), detect anti-41BBL (R&D), anti-Goat Sulfo; negative control, fit value for a curve that stays near the baseline
mouse 4-1BB-His (mouse) = mouse 4-1BB-His (mouse) (UniProt P20334); assay: MSD: coat m41BB-His (Acro); detection anti-mouse Sulfo (MSD); labelled Negative Control, flat curve
Chain of mouse 4-1BB-His (mouse) (P20334 24-187 limits assumed): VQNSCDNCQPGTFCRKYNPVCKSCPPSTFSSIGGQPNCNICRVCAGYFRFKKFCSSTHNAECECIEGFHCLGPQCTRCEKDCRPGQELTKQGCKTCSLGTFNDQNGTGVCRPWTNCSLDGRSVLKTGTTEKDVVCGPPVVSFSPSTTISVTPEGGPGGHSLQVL

mouse CD47-His (mouse) = mouse CD47-His (mouse) (UniProt Q61735); assay: MSD: coat mCD47-His (Acro); detection anti-mouse Sulfo (MSD); labelled Positive Control
Chain of mouse CD47-His (mouse) (Q61735 19-140 limits assumed): as the sequence (Q61735 19-140 limits assumed) above

Chain of recombinant human HVEM (human) (Q92956 39-202 limits assumed): as the sequence (Q92956 39-202 limits assumed) above
Chain of recombinant human LTβR (human) (P36941 31-227 limits assumed): as the sequence (P36941 31-227 limits assumed) above

Kd [1]: 28.4 nM | koff [1]: 0.00754 s⁻¹ | kon [1]: 266000 M⁻¹ s⁻¹ | Kd [2]: 2.12 nM | koff [2]: 0.000876 s⁻¹ | kon [2]: 410000 M⁻¹ s⁻¹
Substance: Fc-LIGHT single-sided fusion protein control (Fc fusion)

EC50 (human 4-1BB-His (human) [3]): 0.63 nM
Substance: PD-1-Fc-4-1BBL chimeric protein (as used in Example 14) (Fc fusion)

EC50 (mouse CD47-Fc (mouse)): 45000 nM
Substance: PD-1-Fc-4-1BBL chimeric protein (as used in Example 15) (Fc fusion)

Kd [4]: 5.24 nM | koff [4]: 0.00154 s⁻¹ | kon [4]: 296000 M⁻¹ s⁻¹
Substance: TIGIT-Fc single-sided fusion protein control (Fc fusion)

EC50 (read off the curve) [5]: 5 nM | EC50 (read off the curve) [6]: 3 nM
Substance: TIGIT-Fc(IgG1)-LIGHT chimeric protein (Fc fusion)

EC50 (human 4-1BB-His (human) [7]): 143 nM
Substance: hSIRPα-Fc-CD40L chimeric protein (Fc fusion)

EC50 (mouse 4-1BB-His (mouse)): 5350 nM | EC50 (mouse CD47-His (mouse)): 0.369 nM
Substance: mSIRPα-Fc-CD40L chimeric protein (Fc fusion)
